± gives the standard error. For some of these results: Fewer inactive variants are shown than the library holds.
B1: glmS ribozyme (parent)
chain: AUAAAAGCGCCAGAACUACAGAAAUGUAGUUGACGAGGAGGAGGUUUAUCGAAUUUUCGGCGGAUGCCUCCAAA

Columns and labels:
Conditions in all cases: with glucosamine-6-phosphate
glucosamine-6-phosphate [1] = variants of: B1; experiment: kcat; higher = faster cleavage; RNA array
Procedure, shortened: (§1)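 Barcoded ribozyme variants, transcribed in situ by E. coli RNA polymerase on sequenced MiSeq chips, were followed via a hybridised Cy3 probe at 37 °C. Glucosamine-6-phosphate ranged from 40 μM to 10 mM in HEPES/KCl/Mg(OAc)2 buffer. kobs came from decay fits to per-tile medians, and kcat and KM from weighted Michaelis–Menten fits.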

glucosamine-6-phosphate [2] = variants of: B1; experiment: KM; higher = weaker cofactor use; RNA array
Procedure, shortened: as §1

glucosamine-6-phosphate [3] = variants of: B1; experiment: self-cleavage kobs at 2500 uM GlcN6P; higher = faster cleavage; RNA array
Procedure, shortened: as §1

glucosamine-6-phosphate [4] = variants of: B1; experiment: self-cleavage kobs at 10000 uM GlcN6P; higher = faster cleavage; RNA array
Procedure, shortened: as §1

glucosamine-6-phosphate [5] = variants of: B1; experiment: self-cleavage kobs at 40 uM GlcN6P; higher = faster cleavage; RNA array
Procedure, shortened: as §1

glucosamine-6-phosphate [6] = variants of: B1; experiment: self-cleavage kobs at 160 uM GlcN6P; higher = faster cleavage; RNA array
Procedure, shortened: as §1

glucosamine-6-phosphate [7] = variants of: B1; experiment: self-cleavage kobs at 640 uM GlcN6P; higher = faster cleavage; RNA array
Procedure, shortened: as §1

| Variant | kcat (glucosamine-6-phosphate [1]) | KM (glucosamine-6-phosphate [2]) | self-cleavage kobs at 2500 uM GlcN6P (glucosamine-6-phosphate [3]) | self-cleavage kobs at 10000 uM GlcN6P (glucosamine-6-phosphate [4]) | self-cleavage kobs at 40 uM GlcN6P (glucosamine-6-phosphate [5]) | self-cleavage kobs at 160 uM GlcN6P (glucosamine-6-phosphate [6]) | self-cleavage kobs at 640 uM GlcN6P (glucosamine-6-phosphate [7]) |
| --- | --- | --- | --- | --- | --- | --- | --- |
| A33U U55A | 0.000138 ± 2.3e-05 s⁻¹ | 2730 ± 1200 µM | 7.49e-05 ± 6.9e-06 s⁻¹ | 0.000105 ± 7.9e-06 s⁻¹ | – | – | – |
| C10G G59A | < 1e-05 s⁻¹ | – | – | – | < 1e-05 s⁻¹ | < 1e-05 s⁻¹ | – |
| A53U G66U | 0.00118 ± 0.00016 s⁻¹ | 2320 ± 590 µM | 0.000716 ± 0.00012 s⁻¹ | 0.000904 ± 0.00012 s⁻¹ | – | 6.64e-05 ± 1.7e-05 s⁻¹ | 0.000307 ± 7.4e-05 s⁻¹ |
| A48C C68G | < 1e-05 s⁻¹ | – | – | < 1e-05 s⁻¹ | < 1e-05 s⁻¹ | – | – |
| A14U A15U | 0.00245 ± 0.00036 s⁻¹ | 2240 ± 500 µM | 0.00125 ± 0.00014 s⁻¹ | 0.00202 ± 0.00018 s⁻¹ | 5.71e-05 ± 7.8e-06 s⁻¹ | 0.000141 ± 1.6e-05 s⁻¹ | 0.000602 ± 7.4e-05 s⁻¹ |
| C11U A53C | 0.000605 ± 0.00015 s⁻¹ | 3780 ± 1300 µM | 0.000307 ± 4.8e-05 s⁻¹ | 0.000412 ± 6.8e-05 s⁻¹ | – | 3.37e-05 ± 1.3e-05 s⁻¹ | 8.09e-05 ± 1e-05 s⁻¹ |
| U54A A64G | 0.0348 ± 0.011 s⁻¹ | 2310 ± 830 µM | – | 0.029 ± 0.0072 s⁻¹ | 0.00058 ± 7.4e-05 s⁻¹ | 0.00313 ± 0.0007 s⁻¹ | 0.00654 ± 0.0014 s⁻¹ |
| G29A G32A C71A | 0.000259 ± 0.00011 s⁻¹ | – | – | 0.000201 ± 4.4e-05 s⁻¹ | – | – | 6.03e-05 ± 2.6e-05 s⁻¹ |
| U45C C68G | 9.46e-05 ± 8.6e-06 s⁻¹ | 714 ± 250 µM | 8.62e-05 ± 1.5e-05 s⁻¹ | 8.34e-05 ± 1.2e-05 s⁻¹ | – | – | 4.14e-05 ± 1.1e-05 s⁻¹ |
| A6G C67U | 0.000111 ± 4.4e-05 s⁻¹ | – | – | 8.08e-05 ± 7.3e-06 s⁻¹ | – | – | – |
| U49G U54G C67A | 0.00023 ± 5.1e-05 s⁻¹ | – | 0.000269 ± 7.4e-05 s⁻¹ | 0.000194 ± 3.6e-05 s⁻¹ | – | – | 0.000235 ± 5.1e-05 s⁻¹ |
| U30G C70G | 0.000136 ± 7.2e-06 s⁻¹ | 439 ± 110 µM | 0.000124 ± 2.3e-05 s⁻¹ | 0.000127 ± 1.4e-05 s⁻¹ | – | – | 9.18e-05 ± 2.2e-05 s⁻¹ |
| C50G C58A G62C G63C C70A | 0.000121 ± 3.1e-05 s⁻¹ | – | 0.000239 ± 5.5e-05 s⁻¹ | 9.95e-05 ± 1.6e-05 s⁻¹ | 4.49e-05 ± 1.7e-05 s⁻¹ | 0.000204 ± 4.8e-05 s⁻¹ | 0.000166 ± 4.1e-05 s⁻¹ |
| G62C C68G | 1.08e-05 ± 2.7e-06 s⁻¹ | – | – | < 1e-05 s⁻¹ | – | – | – |
| C16U U46G | 0.00589 ± 0.00074 s⁻¹ | 1810 ± 320 µM | 0.00323 ± 0.0005 s⁻¹ | 0.00531 ± 0.00055 s⁻¹ | 0.00014 ± 1.3e-05 s⁻¹ | 0.000489 ± 8.8e-05 s⁻¹ | 0.00131 ± 0.00016 s⁻¹ |
| U31A C68A | 2.86e-05 ± 9.3e-06 s⁻¹ | – | 4.06e-05 ± 1.6e-05 s⁻¹ | – | < 1e-05 s⁻¹ | – | – |
| G40U C70U | 0.00235 ± 0.00039 s⁻¹ | 2200 ± 510 µM | 0.00132 ± 0.00013 s⁻¹ | 0.00186 ± 0.0002 s⁻¹ | 5.55e-05 ± 7.2e-06 s⁻¹ | 0.000139 ± 1.4e-05 s⁻¹ | 0.000566 ± 6.5e-05 s⁻¹ |
| C11A U56C | 2.55e-05 ± 1e-05 s⁻¹ | – | 4.6e-05 ± 2.2e-05 s⁻¹ | – | < 1e-05 s⁻¹ | < 1e-05 s⁻¹ | – |
| G13C U54A | 0.000202 ± 4.2e-05 s⁻¹ | 8810 ± 3600 µM | 4.26e-05 ± 8.3e-06 s⁻¹ | 0.000108 ± 7.3e-06 s⁻¹ | – | – | – |
| A15U C67A | 0.00148 ± 0.00015 s⁻¹ | 1700 ± 250 µM | 0.000861 ± 0.00014 s⁻¹ | 0.00127 ± 0.00019 s⁻¹ | 4.29e-05 ± 1e-05 s⁻¹ | 0.000119 ± 1.6e-05 s⁻¹ | 0.000447 ± 9.2e-05 s⁻¹ |
| C10U A53U G59C C68G | < 1e-05 s⁻¹ | – | – | – | < 1e-05 s⁻¹ | – | – |
| A52U A64G | 0.000348 ± 8.9e-05 s⁻¹ | – | 0.00023 ± 3.8e-05 s⁻¹ | 0.000262 ± 3.6e-05 s⁻¹ | – | – | – |
| G41U U45C | 0.000379 ± 2.8e-05 s⁻¹ | 1140 ± 210 µM | 0.000273 ± 5.6e-05 s⁻¹ | 0.000331 ± 4.7e-05 s⁻¹ | – | 4.06e-05 ± 1.5e-05 s⁻¹ | 0.000157 ± 4e-05 s⁻¹ |
| G66C C71G | 4.2e-05 ± 2.4e-06 s⁻¹ | 108 ± 50 µM | 4.07e-05 ± 1.1e-05 s⁻¹ | 3.81e-05 ± 1.5e-05 s⁻¹ | – | – | 4e-05 ± 1.4e-05 s⁻¹ |
| A14U G51U | < 1e-05 s⁻¹ | – | – | < 1e-05 s⁻¹ | < 1e-05 s⁻¹ | – | < 1e-05 s⁻¹ |
| U47A U56G | 0.0204 ± 0.0071 s⁻¹ | 3000 ± 1300 µM | 0.0064 ± 0.0017 s⁻¹ | 0.0194 ± 0.0038 s⁻¹ | 0.000264 ± 4.1e-05 s⁻¹ | 0.000981 ± 0.00018 s⁻¹ | 0.00418 ± 0.00053 s⁻¹ |
| A33U U54A | 0.000116 ± 2e-05 s⁻¹ | – | 7.03e-05 ± 1.2e-05 s⁻¹ | 0.000117 ± 1.6e-05 s⁻¹ | – | – | 6.35e-05 ± 1.7e-05 s⁻¹ |
| U46A G66C | 0.00211 ± 0.0008 s⁻¹ | – | 0.000776 ± 0.00018 s⁻¹ | 0.00237 ± 0.00038 s⁻¹ | 5.47e-05 ± 1.7e-05 s⁻¹ | 0.000161 ± 4.3e-05 s⁻¹ | 0.00053 ± 0.00011 s⁻¹ |
| A42G C70G | 0.000261 ± 5.1e-05 s⁻¹ | 261 ± 120 µM | 0.000414 ± 6.1e-05 s⁻¹ | 0.000223 ± 2.5e-05 s⁻¹ | 4.1e-05 ± 7.7e-06 s⁻¹ | 8.07e-05 ± 1.4e-05 s⁻¹ | 0.000216 ± 2.7e-05 s⁻¹ |
| C11U U30A | 0.00152 ± 0.00047 s⁻¹ | 931 ± 450 µM | 0.0011 ± 0.00021 s⁻¹ | 0.0018 ± 0.00027 s⁻¹ | 8.01e-05 ± 1.1e-05 s⁻¹ | 0.000252 ± 4.8e-05 s⁻¹ | 0.000433 ± 7.8e-05 s⁻¹ |

— the supplement of paper PMC7125110
